The text below walks through data of patent US20240424129A1, “RECOMBINANT FUSION ANTIBODY, AND ANTIBODY-DRUG CONJUGATE AND USE THEREOF” (SUN YAT-SEN UNIVERSITY, priority 2021, published 2024).

Substitutions are numbered along the chain they refer to.

The subject of this test is SKBR3 cells. The test can be described thus: In-vitro cytotoxicity, CCK8 cell viability. Type of test: cell-based, human. The following applies: SKBR3, 48 h, CCK8, mean n=3; Table 7. As to the method: In this example, human breast cancer cell line SKBR3 with high expression of HER2 and human ovarian cancer cell line SKOV3 with high expression of HER2 were chosen to evaluate the ability of the recombinant-fusion-antibody-drug conjugates to inhibit the growth of cancer cells. The recombinant-fusion-antibody-drug conjugates of different concentrations were added to a 96-well plate seeded with SKBR3 or SKOV3 cells. After treatment for 48 h, the viability of cells was calculated using a CCK8 kit.
Cell viability was measured using different concentrations of MMAF, VHH0-MMAF, or different recombinant-fusion-nanobody-drug conjugates (fused VHH1-MMAF to fused VHH26-MMAF). The half-maximal inhibitory concentration IC50 was calculated (FIGS. 14A-14C, and Table 7). FIGS. 14A, 14B and 14C respectively show the viability of SKBR3 cells treated with the recombinant-fusion-nanobody-drug conjugates, including fused VHH1-MMAF to fused VHH6-MMAF, fused VHH7-MMAF to fused VHH22-MMAF, and fused VHH23-MMAF to fused VHH26-MMAF. […] Data are expressed as the mean (n=3).
SKBR3 and SKOV3 cells were chosen to evaluate the ability of the recombinant-fusion-full-length-antibody-drug conjugates to inhibit the growth of cancer cells. […] The half-maximal inhibitory concentration IC50 was calculated.

B1: Fused VHH25-MMAF (conjugate)
VHH: EVQLVESGGGLVQAGGSLRLSCAASGITFSINTMGWYRQAPGKQRELVALISSIGDTYYADSVKGRFTISRDNAKNTVYLQMNCLKPEDTAVYYCKRFRTAAQGTDYWGQGTQVTVSSHHHHHHHLPETGGGKHHHAGYEQF
B1 registered a 50% inhibitory concentration (IC50) of 0.466 nM.

B2: Fused VHH18-MMAF (conjugate)
VHH: EVQLVESGGGLVQAGGSLRLSCAASGITFSINTMGWYRQAPGKQRELVALISSIGDTYYADSVKGRFTISRDNAKNTVYLQMNCLKPEDTAVYYCKRFRTAAQGTDYWGQGTQVTVSSHHHHHHLPETGGGRRLRSDEDLLHI
B2 displayed an IC50 of 0.394 nM.

B3: Fused VHH20-MMAF (conjugate)
VHH: EVQLVESGGGLVQAGGSLRLSCAASGITFSINTMGWYRQAPGKQRELVALISSIGDTYYADSVKGRFTISRDNAKNTVYLQMNCLKPEDTAVYYCKRFRTAAQGTDYWGQGTQVTVSSHHHHHHLPETGGGRRRSFHDDSDEDLLHI
B3 yielded an IC50 of 0.038 nM.

B4: Fused VHH23-MMAF (conjugate)
VHH: EVQLVESGGGLVQAGGSLRLSCAASGITFSINTMGWYRQAPGKQRELVALISSIGDTYYADSVKGRFTISRDNAKNTVYLQMNCLKPEDTAVYYCKRFRTAAQGTDYWGQGTQVTVSSHHHHHHHLPETGGGRKRSHAGYQTI
Consider B4, for which the IC50 was found to be 0.098 nM.

B5: Fused VHH12-MMAF (conjugate)
VHH: EVQLVESGGGLVQAGGSLRLSCAASGITFSINTMGWYRQAPGKQRELVALISSIGDTYYADSVKGRFTISRDNAKNTVYLQMNCLKPEDTAVYYCKRFRTAAQGTDYWGQGTQVTVSSHHHHHHGGGGSGGGGSGGGGSSDEDLLHI
On to B5, for which inhibition was half-maximal at 0.14 nM (IC50).

B6: Fused VHH5-MMAF (conjugate)
VHH: EVQLVESGGGLVQAGGSLRLSCAASGITFSINTMGWYRQAPGKQRELVALISSIGDTYYADSVKGRFTISRDNAKNTVYLQMNCLKPEDTAVYYCKRFRTAAQGTDYWGQGTQVTVSSHHHHHHLPETGGGVQNPSADRNLLDL
The molecule B6 registered an IC50 of 0.791 nM. This IC50 lies about 5.6-fold higher than the previous one.

B7: Fused VHH13-MMAF (conjugate)
VHH: B6 VHH with V132S, Q133F, N134H, P135D, S136D, A137S, R139E, N140D, D143H, L144I
B7 returned an IC50 of 0.0798 nM. Compared with the last molecule, the IC50 is about 9.9-fold lower.

B8: Fused VHH14-MMAF (conjugate)
VHH: B6 VHH with V132E, Q133E, N134S, P135E, S136E, A137R, R139D, N140H, D143P, L144M
Regarding B8, the IC50 was determined as 0.069 nM.

B9: Fused VHH19-MMAF (conjugate)
VHH: B6 VHH with V132R, Q133R, N134R, P135R, S136K, A137S, R139E, N140D, D143H, L144I
As for B9, the IC50 stood at 0.564 nM.

B10: Fused VHH9-MMAF (conjugate)
VHH: EVQLVESGGGLVQAGGSLRLSCAASGITFSINTMGWYRQAPGKQRELVALISSIGDTYYADSVKGRFTISRDNAKNTVYLQMNCLKPEDTAVYYCKRFRTAAQGTDYWGQGTQVTVSSHHHHHHGGGSDEDLLHI
Take B10: the midpoint of inhibition, the IC50, lay at 0.294 nM.

B11: Fused VHH3-MMAF (conjugate)
VHH: EVQLVESGGGLVQAGGSLRLSCAASGITFSINTMGWYRQAPGKQRELVALISSIGDTYYADSVKGRFTISRDNAKNTVYLQMNCLKPEDTAVYYCKRFRTAAQGTDYWGQGTQVTVSSHHHHHHLPETGGGASVSLLDDEL
For the molecule B11, the IC50 was found to be 0.109 nM.

B12: Fused VHH16-MMAF (conjugate)
VHH: B11 VHH with A132P, S133A, V134A, S135Y, L136R, L137G, D138V, D139G, E140D, L141D
Regarding B12, the IC50 was found to be 0.027 nM.

B13: Fused VHH15-MMAF (conjugate)
VHH: B11 VHH with A132S, S133Y, V134K, S135Y, L136S, L137K, D138V, D139N, E140K, L141E
B13: 0.051 nM corresponded to half-maximal inhibition (IC50).

B14: Fused VHH21-MMAF (conjugate)
VHH: EVQLVESGGGLVQAGGSLRLSCAASGITFSINTMGWYRQAPGKQRELVALISSIGDTYYADSVKGRFTISRDNAKNTVYLQMNCLKPEDTAVYYCKRFRTAAQGTDYWGQGTQVTVSSHHHHHHLPETGGGRRLRKSFHDDSDEDLLHI
Regarding B14, half-maximal inhibition (IC50) required 0.016 nM.

B15: Fused VHH22-MMAF (conjugate)
VHH: B14 VHH with L134R
Consider B15, for which the IC50 is 0.014 nM.

B16: Fused VHH10-MMAF (conjugate)
VHH: EVQLVESGGGLVQAGGSLRLSCAASGITFSINTMGWYRQAPGKQRELVALISSIGDTYYADSVKGRFTISRDNAKNTVYLQMNCLKPEDTAVYYCKRFRTAAQGTDYWGQGTQVTVSSHHHHHHGGGGGSDEDLLHI
As to B16, the IC50 was 0.232 nM.

B17: Fused VHH11-MMAF (conjugate)
VHH: B16 VHH with G129S
As to B17, the IC50 was determined as 0.16 nM.

B18: Fused VHH24-MMAF (conjugate)
VHH: EVQLVESGGGLVQAGGSLRLSCAASGITFSINTMGWYRQAPGKQRELVALISSIGDTYYADSVKGRFTISRDNAKNTVYLQMNCLKPEDTAVYYCKRFRTAAQGTDYWGQGTQVTVSSHHHHHHHLPETGGGRRRRKRKRSHAGYQTI
Regarding B18, the IC50 is 0.128 nM.

B19: Fused VHH17-MMAF (conjugate)
VHH: EVQLVESGGGLVQAGGSLRLSCAASGITFSINTMGWYRQAPGKQRELVALISSIGDTYYADSVKGRFTISRDNAKNTVYLQMNCLKPEDTAVYYCKRFRTAAQGTDYWGQGTQVTVSSHHHHHHLPETGGGRRRSDEDLLHI
B19: the IC50 worked out at 0.165 nM.

B20: Fused VHH26-MMAF (conjugate)
VHH: EVQLVESGGGLVQAGGSLRLSCAASGITFSINTMGWYRQAPGKQRELVALISSIGDTYYADSVKGRFTISRDNAKNTVYLQMNCLKPEDTAVYYCKRFRTAAQGTDYWGQGTQVTVSSHHHHHHHLPETGGGRRLRKHHHAGYEQF
B20 had an IC50 of 0.095 nM.

B21: Fused VHH4-MMAF (conjugate)
VHH: EVQLVESGGGLVQAGGSLRLSCAASGITFSINTMGWYRQAPGKQRELVALISSIGDTYYADSVKGRFTISRDNAKNTVYLQMNCLKPEDTAVYYCKRFRTAAQGTDYWGQGTQVTVSSHHHHHHHLPETGGGASSGLDDLDLLGK
Take B21: the IC50 worked out at 0.885 nM.

B22: Fused VHH6-MMAF (conjugate)
VHH: B21 VHH with A133N, S134A, S135L, G136S, L137W, D138L, L140E, D141E, G144C, K145L
For B22, the IC50 came to 0.791 nM.

The IC50 is the point on the concentration scale where inhibition reaches its midpoint.
